Measurements reported in patent US20130195866.

Biological target: T1, NFATc4 (nuclear factor of activated T cells), endogenous in mouse cortical neurons (UniProt Q8K120)
T1 sequence: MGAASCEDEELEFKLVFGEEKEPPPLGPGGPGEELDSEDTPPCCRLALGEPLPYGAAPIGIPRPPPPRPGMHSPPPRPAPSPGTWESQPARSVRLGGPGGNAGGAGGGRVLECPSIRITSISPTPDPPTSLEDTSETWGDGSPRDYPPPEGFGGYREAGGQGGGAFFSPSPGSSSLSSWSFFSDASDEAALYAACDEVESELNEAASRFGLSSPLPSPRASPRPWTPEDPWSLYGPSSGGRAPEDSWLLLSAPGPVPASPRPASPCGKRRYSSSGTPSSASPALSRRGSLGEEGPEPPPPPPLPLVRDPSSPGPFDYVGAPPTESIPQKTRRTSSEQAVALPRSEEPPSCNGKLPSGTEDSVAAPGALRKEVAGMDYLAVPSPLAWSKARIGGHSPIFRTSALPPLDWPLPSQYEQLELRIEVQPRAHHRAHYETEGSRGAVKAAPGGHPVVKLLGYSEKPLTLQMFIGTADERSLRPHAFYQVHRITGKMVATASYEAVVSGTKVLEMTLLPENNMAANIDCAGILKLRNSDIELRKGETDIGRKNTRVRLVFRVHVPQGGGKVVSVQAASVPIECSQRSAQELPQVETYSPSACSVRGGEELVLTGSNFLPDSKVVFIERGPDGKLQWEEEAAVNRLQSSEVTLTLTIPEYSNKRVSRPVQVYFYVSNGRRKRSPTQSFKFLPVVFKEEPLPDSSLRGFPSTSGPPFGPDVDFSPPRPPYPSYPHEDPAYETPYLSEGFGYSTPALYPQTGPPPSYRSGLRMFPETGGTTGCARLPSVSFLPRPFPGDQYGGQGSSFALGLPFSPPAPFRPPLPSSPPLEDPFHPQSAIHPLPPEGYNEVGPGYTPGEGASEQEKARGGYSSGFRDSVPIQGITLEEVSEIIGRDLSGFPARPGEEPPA

HA-tagged constitutively active calcineurin, CaNCA (mouse CaN amino acid residues 1-399, 45 kDa form)
NFATc4 nuclear distribution in neurons of injected mouse brain: CaNCA-expressing neurons showed high levels of NFATc4 nuclear distribution (data not shown)
